Test results taken from the supplement of paper PMC11246515.
± gives the standard deviation of the averaged measurements.

Test: total protein half-life in vivo (active degradation + dilution); higher = more stable protein
[1] = E. coli NCM3722 delta-clpP delta-lon delta-hslV, growth: N-lim chemostat, doubling time 6 h
[2] = E. coli NCM3722 delta-clpP, growth: N-lim chemostat, doubling time 6 h
[3] = E. coli NCM3722 delta-hslV, growth: N-lim chemostat, doubling time 6 h
[4] = E. coli NCM3722 delta-lon, growth: N-lim chemostat, doubling time 6 h
[5] = E. coli NCM3722 delta-smpB, growth: N-lim chemostat, doubling time 6 h
[6] = wild type E. coli NCM3722, growth: C-lim chemostat, doubling time 3 h
[7] = wild type E. coli NCM3722, growth: C-lim chemostat, doubling time 6 h
[8] = wild type E. coli NCM3722, growth: C-lim chemostat, doubling time 12 h
[9] = wild type E. coli NCM3722, growth: N-lim chemostat, doubling time 6 h
[10] = wild type E. coli NCM3722, growth: N-lim chemostat, doubling time 12 h
[11] = wild type E. coli NCM3722, growth: P-lim chemostat, doubling time 6 h
[12] = wild type E. coli NCM3722, growth: P-lim chemostat, doubling time 12 h

Row | Sequence | total protein half-life in vivo [1] | total protein half-life in vivo [2] | total protein half-life in vivo [3] | total protein half-life in vivo [4] | total protein half-life in vivo [5] | total protein half-life in vivo [6] | total protein half-life in vivo [7] | total protein half-life in vivo [8] | total protein half-life in vivo [9] | total protein half-life in vivo [10] | total protein half-life in vivo [11] | total protein half-life in vivo [12]
1 | MQSLHGNCLIAYARHKYILTMVNGEYRYFNGGDLVFADASQIRVDKCVENFVFVSRDTLSLFLPMLKEEALNLHAHKKVSSLLVHHCSRDIPVFQEVAQLSQNKNLRYAEMLRKRALIFALLSVFLEDEHFIPLLLNVLQPNMRTRVCTVINNNIAHEWTLARIASELLMSPSLLKKKLREEETSYSQLLTECRMQRALQLIVIHGFSIKRVAVSCGYHSVSYFIYVFRNYYGMTPTEYQERSAQRLSNRDSAASIVAQGNFYGTDRSAEGIRL | 6.49 ± 1 h | 1.14 h |  |  |  |  |  |  |  |  |  | 
2 | MQSVTPTSQYLKALNEGSHQPDDVQKEAVSRLEIIYQELINSTPPAPRTSGLMARVGKLWGKREDTKHTPVRGLYMWGGVGRGKTWLMDLFYQSLPGERKQRLHFHRFMLRVHEELTALQGQTDPLEIIADRFKAETDVLCFDEFFVSDITDAMLLGGLMKALFARGITLVATSNIPPDELYRNGLQRARFLPAIDAIKQHCDVMNVDAGVDYRLRTLTQAHLWLSPLHDETRAQMDKLWLALAGGKRENSPTLEINHRPLATMGVENQTLAVSFTTLCVDARSQHDYIALSRLFHTVMLFDVPVMTRLMESEARRFIALVDEFYERHVKLVVSAEVPLYEIYQGDRLKFEFQRCLSRLQEMQSEEYLKREHLAG | 3.66 ± 0.54 h | 2.97 ± 0.16 h | 3.35 ± 0.15 h | 2.58 h | 3.103 ± 0.03 h | 2.72 ± 0.05 h | 5.71 ± 0.58 h | 9.73 ± 1.3 h | 3.4 ± 0.15 h | 5.55 ± 0.15 h | 5.25 ± 0.66 h | 9.34 ± 1.1 h
3 | MQTFQADLAIVGAGGAGLRAAIAAAQANPNAKIALISKVYPMRSHTVAAEGGSAAVAQDHDSFEYHFHDTVAGGDWLCEQDVVDYFVHHCPTEMTQLELWGCPWSRRPDGSVNVRRFGGMKIERTWFAADKTGFHMLHTLFQTSLQFPQIQRFDEHFVLDILVDDGHVRGLVAMNMMEGTLVQIRANAVVMATGGAGRVYRYNTNGGIVTGDGMGMALSHGVPLRDMEFVQYHPTGLPGSGILMTEGCRGEGGILVNKNGYRYLQDYGMGPETPLGEPKNKYMELGPRDKVSQAFWHEWRKGNTISTPRGDVVYLDLRHLGEKKLHERLPFICELAKAYVGVDPVKEPIPVRPTAHYTMGGIETDQNCETRIKGLFAVGECSSVGLHGANRLGSNSLAELVVFGRLAGEQATERAATAGNGNEAAIEAQAAGVEQRLKDLVNQDGGENWAKIRDEMGLAMEEGCGIYRTPELMQKTIDKLAELQERFKRVRITDTSSVFNTDLLYTIELGHGLNVAECMAHSAMARKESRGAHQRLDEGCTERDDVNFLKHTLAFRDADGTTRLEYSDVKITTLPPAKRVYGGEADAADKAEAANKKEKANG | 5.99 ± 0.19 h | 5.68 ± 0.083 h | 6.59 ± 0.5 h | 6.24 ± 0.66 h | 5.45 ± 0.11 h | 2.97 ± 0.033 h | 6.38 ± 0.42 h | 12.1 ± 1.9 h | 6.2 ± 0.28 h | 11.3 ± 1.7 h | 6.03 ± 0.064 h | 13.4 ± 0.38 h
4 | MQTQIKVRGYHLDVYQHVNNARYLEFLEEARWDGLENSDSFQWMTAHNIAFVVVNININYRRPAVLSDLLTITSQLQQLNGKSGILSQVITLEPEGQVVADALITFVCIDLKTQKALALEGELREKLEQMVK | 4.69 ± 0.88 h | 3.29 ± 0.61 h | 3.46 ± 0.25 h |  | 3.35 ± 0.049 h | 3.22 ± 0.17 h | 5.29 ± 0.48 h | 7.87 ± 0.63 h | 3.29 ± 0.11 h | 4.77 ± 0.72 h | 5.365 ± 0.043 h | 9.67 ± 0.54 h
5 | MQTQVLFEHPLNEKMRTWLRIEFLIQQLTVNLPIVDHAGALHFFRNVSELLDVFERGEVRTELLKELDRQQRKLQTWIGVPGVDQSRIEALIQQLKAAGSVLISAPRIGQFLREDRLIALVRQRLSIPGGCCSFDLPTLHIWLHLPQAQRDSQVETWIASLNPLTQALTMVLDLIRQSAPFRKQTSLNGFYQDNGGDADLLRLNLSLDSQLYPQISGHKSRFAIRFMPLDTENGQVPERLDFELACC | 6.32 ± 0.19 h | 6.18 ± 0.41 h | 6.06 ± 1.5 h | 5.0717 ± 0.004 h | 4.94 ± 0.2 h | 2.66 ± 0.025 h | 6.55 ± 0.5 h |  | 4.87 ± 1.7 h | 11.4 ± 6.5 h | 5.66 ± 0.3 h | 12.3 ± 1.5 h
6 | MQTSPLLTQLMEALRCLPGVGPKSAQRMAFTLLQRDRSGGMRLAQALTRAMSEIGHCADCRTFTEQEVCNICSNPRRQENGQICVVESPADIYAIEQTGQFSGRYFVLMGHLSPLDGIGPDDIGLDRLEQRLAEEKITEVILATNPTVEGEATANYIAELCAQYDVEASRIAHGVPVGGELEMVDGTTLSHSLAGRHKIRF [P0A7H6] | 5.56 ± 0.29 h | 5.19 ± 0.32 h | 4.36 ± 0.27 h | 4.59 ± 0.36 h | 4.21 ± 0.85 h | 2.52 ± 0.099 h | 4.09 h | 8.57 ± 0.99 h | 4.67 h | 6.74 ± 0.68 h | 4.79 ± 0.23 h | 8.59 h
7 | MQVLHVCSEMFPLLKTGGLADVIGALPAAQIADGVDARVLLPAFPDIRRGVTDAQVVSRRDTFAGHITLLFGHYNGVGIYLIDAPHLYDRPGSPYHDTNLFAYTDNVLRFALLGWVGAEMASGLDPFWRPDVVHAHDWHAGLAPAYLAARGRPAKSVFTVHNLAYQGMFYAHHMNDIQLPWSFFNIHGLEFNGQISFLKAGLYYADHITAVSPTYAREITEPQFAYGMEGLLQQRHREGRLSGVLNGVDEKIWSPETDLLLASRYTRDTLEDKAENKRQLQIAMGLKVDDKVPLFAVVSRLTSQKGLDLVLEALPGLLEQGGQLALLGAGDPVLQEGFLAAAAEYPGQVGVQIGYHEAFSHRIMGGADVILVPSRFEPCGLTQLYGLKYGTLPLVRRTGGLADTVSDCSLENLADGVASGFVFEDSNAWSLLRAIRRAFVLWSRPSLWRFVQRQAMAMDFSWQVAAKSYRELYYRLK [P0A6U8] | 6.98 ± 0.61 h | 6.92 ± 1.1 h | 6.028 ± 0.0091 h | 5.806 ± 0.035 h | 5.83 ± 0.06 h | 3.03 ± 0.11 h | 6.7 ± 0.36 h | 11.4 ± 0.49 h | 6.21 ± 0.21 h | 13.2 ± 2 h | 6.32 ± 0.3 h | 12.4 ± 0.65 h
